Results from article PMC6105683 (Nature Communications, 2018).

B1: GST-ZCCHC3 (natural protein, UniProt Q9NUD5 1-403, looked up)
chain: MATGGGAEEERKRGRPQLLPPARPAARGEEADGGREKMGWAQVVKNLAEKKGEFREPRPPRREEESGGGGGSAGLGGPAGLAAPDLGDFPPAGRGDPKGRRRDPAGEAVDPRKKKGAAEAGRRKKAEAAAAAMATPARPGEAEDAAERPLQDEPAAAAGPGKGRFLVRICFQGDEGACPTRDFVVGALILRSIGMDPSDIYAVIQIPGSREFDVSFRSAEKLALFLRVYEEKREQEDCWENFVVLGRSKSSLKTLFILFRNETVDVEDIVTWLKRHCDVLAVPVKVTDRFGIWTGEYKCEIELRQGEGGVRHLPGAFFLGAERGYSWYKGQPKTCFKCGSRTHMSGSCTQDRCFRCGEEGHLSPYCRKGIVCNLCGKRGHAFAQCPKAVHNSVAAQLTGVAGH
modifications: lysine residues labelled with a Blue-NHS labeling kit, dye:protein molar ratio of 3
notes: also called recombinant ZCCHC3

What was measured:
Test in all cases: MST
GST-ZCCHC3;GST-cGAS = system: GST-ZCCHC3;GST-cGAS
GST-ZCCHC3 = system: GST-ZCCHC3
GST-cGAS [1] = system: GST-cGAS
GST-cGAS [2] = target: T1, GST-cGAS (UniProt Q8N884 1-522); conditions: both partners purified
T1 construct: also called recombinant cGAS
T1 sequence (Q8N884 whole entry): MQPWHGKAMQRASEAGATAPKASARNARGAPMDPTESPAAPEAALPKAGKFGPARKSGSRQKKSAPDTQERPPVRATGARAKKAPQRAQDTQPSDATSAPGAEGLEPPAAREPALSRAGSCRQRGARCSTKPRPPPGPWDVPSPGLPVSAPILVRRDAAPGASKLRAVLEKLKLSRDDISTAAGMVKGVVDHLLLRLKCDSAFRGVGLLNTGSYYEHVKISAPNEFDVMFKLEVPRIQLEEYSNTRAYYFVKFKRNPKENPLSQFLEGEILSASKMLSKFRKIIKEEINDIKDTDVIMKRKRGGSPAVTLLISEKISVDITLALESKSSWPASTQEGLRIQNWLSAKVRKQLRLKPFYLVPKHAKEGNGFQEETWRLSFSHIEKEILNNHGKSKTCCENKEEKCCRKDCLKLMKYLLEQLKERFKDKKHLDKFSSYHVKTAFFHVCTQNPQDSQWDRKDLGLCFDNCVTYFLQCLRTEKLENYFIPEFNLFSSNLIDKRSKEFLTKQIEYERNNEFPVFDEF

Row | Molecule | Kd (GST-ZCCHC3;GST-cGAS) [nM] | Kd (GST-ZCCHC3) [nM] | Kd (GST-cGAS [1]) [nM] | Kd (GST-cGAS [2]) [nM]
1 | HSV60 | 7.62 | 866 | 600 | –
2 | B1 | – | – | – | 79.6 ± 12.5
